Measured values as given in patent US9144596 (UNIVERSITY OF FLORIDA RESEARCH FOUNDATION, dated 2015).

B1: APCwt (amino acids 1190-1328) fused to the yeast Gal4 DNA-binding domain (pGBDU-C3-APCwt) (other)
chain: MKLLSSIEQACDICRLKKLKCSKEKPKCAKCLKNNWECRYSPKTKRSPLTRAHLTEVESRLERLEQLFLLIFPREDLDMILKMDSLQDIKALLTGLFVQDNVNKDAVTDRLASVETDMPLTLRQHRISATSSSEESSNKGQRQLTVSSQKQSFSFSKSSSGQSSKTEHMSSSSENTSTPSSNAKRQNQLHPSSAQSRSGQPQKAATCKVSSINQETIQTYCVEDTPICFSRCSSLSSLSSAEDEIGCNQTTQEADSANTLQIAEIKEKIGTRSAEDPVSEVPAVSQ
notes: Yeast two-hybrid bait, expressed in S. cerevisiae PJ69-4A; also called APC wild-type (wt)
B2: APC(I-A,Y-A) (amino acids 1200-1324; I1259A, Y1262A) fused to the yeast Gal4 DNA-binding domain (pGBDU-C3-APC(I-A,Y-A)) (other)
chain: SSSGQSSKTEHMSSSSENTSTPSSNAKRQNQLHPSSAQSRSGQPQKAATCKVSSINQETAQTACVEDTPICFSRCSSLSSLSSAEDEIGCNQTTQEADSANTLQIAEIKEKIGTRSAEDPVSEVP
notes: also called mutant APC (I-A,Y-A); mutant DRI-domain

Experiments:
[1] = target: pol-βMut(Set-1) (T79A/K81A/R83A) fused to the yeast Gal4 activation domain (pGAD-C3-pol-βMut(Set-1)) (yeast; human, UniProt P06746 1-335); assay: yeast two-hybrid (growth on SD-ULH medium with 5 mM 3-amino-1,2,4-triazole)
[2] = target: pol-βwt (full-length DNA polymerase β) fused to the yeast Gal4 activation domain (pGAD-C3-pol-βwt) (yeast; human, UniProt P06746 1-335); assay: as above

Binder	binding result [1]	binding result [2]
B1	no binding	–
B2	–	no binding
